Values joined by “and” are separate entries in the source; they are usually repeats but may differ in a detail not shown here. Equal entries are not always repeated.
Key:
[1] = target: zRET^ECD-zGDNF^mat.-zGFRα1a^D1-3 ternary complex (zRGα1a), 2:2:2 (zebrafish) (UniProt A8E7C6); test: cryo-EM micrographs, particle-pair analysis and 2D class averages; non-crosslinked zRGα1a at 0.1 mg/ml on Quantifoil grids (dataset 3); complex with complex in linear arrays
[2] = target: T1, zGDNF^mat._(Y158A)-zGFRα1a^D1−3WT complex (zebrafish, UniProt Q98TT9 1-353; Q98TU0 135-235, Y158A); test: MST
T1 sequence 1: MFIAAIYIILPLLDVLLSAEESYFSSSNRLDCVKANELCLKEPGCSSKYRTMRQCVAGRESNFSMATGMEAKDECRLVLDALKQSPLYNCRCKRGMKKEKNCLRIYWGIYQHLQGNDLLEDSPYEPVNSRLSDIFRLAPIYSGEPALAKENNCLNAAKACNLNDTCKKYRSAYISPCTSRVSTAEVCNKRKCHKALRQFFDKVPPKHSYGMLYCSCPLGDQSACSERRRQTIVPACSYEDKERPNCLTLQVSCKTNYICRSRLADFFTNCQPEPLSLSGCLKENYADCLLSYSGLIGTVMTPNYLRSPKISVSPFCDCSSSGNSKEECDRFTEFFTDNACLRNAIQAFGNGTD
T1 sequence 2: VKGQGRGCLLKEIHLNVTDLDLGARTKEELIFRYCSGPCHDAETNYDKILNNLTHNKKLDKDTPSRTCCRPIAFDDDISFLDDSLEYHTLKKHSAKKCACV

[3] = target: T2, zebrafish RET extracellular domain (zRET^ECD), A8E7C6; test: MST; details: chain shown with the change
T2 chain: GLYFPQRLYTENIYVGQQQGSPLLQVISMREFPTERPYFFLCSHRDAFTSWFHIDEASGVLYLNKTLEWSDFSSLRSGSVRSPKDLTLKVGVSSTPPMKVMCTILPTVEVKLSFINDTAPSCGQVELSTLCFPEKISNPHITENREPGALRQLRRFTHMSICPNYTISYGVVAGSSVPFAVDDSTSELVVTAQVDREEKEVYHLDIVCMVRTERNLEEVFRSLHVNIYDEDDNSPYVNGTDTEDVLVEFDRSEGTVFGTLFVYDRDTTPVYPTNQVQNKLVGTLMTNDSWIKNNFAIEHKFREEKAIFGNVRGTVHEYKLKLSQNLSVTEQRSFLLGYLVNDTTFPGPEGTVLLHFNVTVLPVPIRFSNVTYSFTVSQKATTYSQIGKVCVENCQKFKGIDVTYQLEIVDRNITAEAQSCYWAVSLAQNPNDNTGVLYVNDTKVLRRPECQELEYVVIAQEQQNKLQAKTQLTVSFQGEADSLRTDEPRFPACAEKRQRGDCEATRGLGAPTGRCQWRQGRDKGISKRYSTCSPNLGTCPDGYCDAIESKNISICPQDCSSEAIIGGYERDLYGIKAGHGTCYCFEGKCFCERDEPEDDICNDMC

[4] = target: the molecule itself; test: cryo-EM structure; reconstituted zRGα1a complex crosslinked by GraFix (glutaraldehyde), 0.1 mg/ml; 20 mM Tris pH 7.0, 150 mM NaCl, 1 mM CaCl2; untilted and 30° tilted datasets
[5] = target: zebrafish RET extracellular domain (zRET^ECD) (zebrafish) (UniProt A8E7C6); test: MST; zRET^ECD labelled with NHS-RED (50 nM fluorophore) held constant, unlabelled zGFRα1^D1-3-zGDNF^mat. (WT and mutants) in 1:1 serial dilution; 25°C; 20 mM HEPES pH 7.0, 150 mM NaCl, 1 mM CaCl2, 0.05 % Tween-20; quadratic fit, at least three repeats
[6] = target: zRET^ECD with the CLD3-β2-β3 loop truncated to AAG (zRET^ECD_(P291-Q296:AAG)) (zebrafish) (UniProt A8E7C6); test: as above

zRET^ECD-zGDNF^mat.-zGFRα1a^D1-3 ternary complex (zRGα1a), 2:2:2 (from UniProt A8E7C6 1-626; Q98TT9 1-353; Q98TU0 135-235)
stoichiometry N [1]: 2 and 4

B1: zebrafish RET extracellular domain (zRET^ECD) (domain or fragment)
chain: GLYFPQRLYTENIYVGQQQGSPLLQVISMREFPTERPYFFLCSHRDAFTSWFHIDEASGVLYLNKTLEWSDFSSLRSGSVRSPKDLTLKVGVSSTPPMKVMCTILPTVEVKLSFINDTAPSCGQVELSTLCFPEKISNPHITENREPGALRQLRRFTHMSICPNYTISYGVVAGSSVPFAVDDSTSELVVTAQVDREEKEVYHLDIVCMVRTERNLEEVFRSLHVNIYDEDDNSPYVNGTDTEDVLVEFDRSEGTVFGTLFVYDRDTTPVYPTNQVQNKLVGTLMTNDSWIKNNFAIEHKFREEKAIFGNVRGTVHEYKLKLSQNLSVTEQRSFLLGYLVNDTTFPGPEGTVLLHFNVTVLPVPIRFSNVTYSFTVSQKATTYSQIGKVCVENCQKFKGIDVTYQLEIVDRNITAEAQSCYWAVSLAQNPNDNTGVLYVNDTKVLRRPECQELEYVVIAQEQQNKLQAKTQLTVSFQGEADSLRTDEPRFPACAEKRQRGDCEATRGLGAPTGRCQWRQGRDKGISKRYSTCSPNLGTCPDGYCDAIESKNISICPQDCSSEAIIGGYERDLYGIKAGHGTCYCFEGKCFCERDEPEDDICNDMC
modifications: NHS-RED 2nd generation dye (amine reactive) in the MST only
Kd [2]: 0.173 µM

B2: zGDNF^mat.-zGFRα1a^D1-3 complex (2:2), wild type, Q98TT9;Q98TU0 N323A (protein)
chain 1: MFIAAIYIILPLLDVLLSAEESYFSSSNRLDCVKANELCLKEPGCSSKYRTMRQCVAGRESNFSMATGMEAKDECRLVLDALKQSPLYNCRCKRGMKKEKNCLRIYWGIYQHLQGNDLLEDSPYEPVNSRLSDIFRLAPIYSGEPALAKENNCLNAAKACNLNDTCKKYRSAYISPCTSRVSTAEVCNKRKCHKALRQFFDKVPPKHSYGMLYCSCPLGDQSACSERRRQTIVPACSYEDKERPNCLTLQVSCKTNYICRSRLADFFTNCQPEPLSLSGCLKENYADCLLSYSGLIGTVMTPNYLRSPKISVSPFCDCSSSGASKEECDRFTEFFTDNACLRNAIQAFGNGTD
chain 2: VKGQGRGCLLKEIHLNVTDLDLGYRTKEELIFRYCSGPCHDAETNYDKILNNLTHNKKLDKDTPSRTCCRPIAFDDDISFLDDSLEYHTLKKHSAKKCACV
Kd ([3]; fluorescently labeled zRETECD, minimum of n = 3 repeats): 0.088 µM

B3: zebrafish GDNF, N-terminally truncated (zGDNF^mat.) (ligand, UniProt Q98TU0 135-235, looked up)
chain: VKGQGRGCLLKEIHLNVTDLDLGYRTKEELIFRYCSGPCHDAETNYDKILNNLTHNKKLDKDTPSRTCCRPIAFDDDISFLDDSLEYHTLKKHSAKKCACV
notes: One protomer; it stands as a dimer in the complexes; also called GDNF1; not shown: Protein A, C-terminal, cleaved
stoichiometry N [4]: 2

B4: zGDNF^mat.-zGFRα1a^D1-3 complex (2:2), wild type, Q98TT9;Q98TU0 L156A (protein)
chain 1: MFIAAIYIILPLLDVLLSAEESYFSSSNRLDCVKANELCLKEPGCSSKYRTMRQCVAGRESNFSMATGMEAKDECRLVLDALKQSPLYNCRCKRGMKKEKNCLRIYWGIYQHLQGNDLLEDSPYEPVNSRLSDIFRLAPIYSGEPALAKENNCLNAAKACNLNDTCKKYRSAYISPCTSRVSTAEVCNKRKCHKALRQFFDKVPPKHSYGMLYCSCPLGDQSACSERRRQTIVPACSYEDKERPNCLTLQVSCKTNYICRSRLADFFTNCQPEPLSLSGCLKENYADCLLSYSGLIGTVMTPNYLRSPKISVSPFCDCSSSGNSKEECDRFTEFFTDNACLRNAIQAFGNGTD
chain 2: VKGQGRGCLLKEIHLNVTDLDAGYRTKEELIFRYCSGPCHDAETNYDKILNNLTHNKKLDKDTPSRTCCRPIAFDDDISFLDDSLEYHTLKKHSAKKCACV
Kd [3]: 0.088 µM

B5: zGDNF^mat._(Y158A)-zGFRα1a^D1−3WT complex (complex)
chain 1: MFIAAIYIILPLLDVLLSAEESYFSSSNRLDCVKANELCLKEPGCSSKYRTMRQCVAGRESNFSMATGMEAKDECRLVLDALKQSPLYNCRCKRGMKKEKNCLRIYWGIYQHLQGNDLLEDSPYEPVNSRLSDIFRLAPIYSGEPALAKENNCLNAAKACNLNDTCKKYRSAYISPCTSRVSTAEVCNKRKCHKALRQFFDKVPPKHSYGMLYCSCPLGDQSACSERRRQTIVPACSYEDKERPNCLTLQVSCKTNYICRSRLADFFTNCQPEPLSLSGCLKENYADCLLSYSGLIGTVMTPNYLRSPKISVSPFCDCSSSGNSKEECDRFTEFFTDNACLRNAIQAFGNGTD
chain 2: VKGQGRGCLLKEIHLNVTDLDLGARTKEELIFRYCSGPCHDAETNYDKILNNLTHNKKLDKDTPSRTCCRPIAFDDDISFLDDSLEYHTLKKHSAKKCACV
fold decrease in affinity against the wild type [5]: 2 fold

B6: zGDNFwt-zGFR1α1a^D1−3_(N323A,E326A,E327A) complex (complex)
chain 1: MFIAAIYIILPLLDVLLSAEESYFSSSNRLDCVKANELCLKEPGCSSKYRTMRQCVAGRESNFSMATGMEAKDECRLVLDALKQSPLYNCRCKRGMKKEKNCLRIYWGIYQHLQGNDLLEDSPYEPVNSRLSDIFRLAPIYSGEPALAKENNCLNAAKACNLNDTCKKYRSAYISPCTSRVSTAEVCNKRKCHKALRQFFDKVPPKHSYGMLYCSCPLGDQSACSERRRQTIVPACSYEDKERPNCLTLQVSCKTNYICRSRLADFFTNCQPEPLSLSGCLKENYADCLLSYSGLIGTVMTPNYLRSPKISVSPFCDCSSSGASKAACDRFTEFFTDNACLRNAIQAFGNGTD
chain 2: VKGQGRGCLLKEIHLNVTDLDLGYRTKEELIFRYCSGPCHDAETNYDKILNNLTHNKKLDKDTPSRTCCRPIAFDDDISFLDDSLEYHTLKKHSAKKCACV
Kd [5]: 2.35 µM

B7: zGDNF^mat.-zGFRα1a^D1-3 complex (2:2), wild type (complex)
chain 1: MFIAAIYIILPLLDVLLSAEESYFSSSNRLDCVKANELCLKEPGCSSKYRTMRQCVAGRESNFSMATGMEAKDECRLVLDALKQSPLYNCRCKRGMKKEKNCLRIYWGIYQHLQGNDLLEDSPYEPVNSRLSDIFRLAPIYSGEPALAKENNCLNAAKACNLNDTCKKYRSAYISPCTSRVSTAEVCNKRKCHKALRQFFDKVPPKHSYGMLYCSCPLGDQSACSERRRQTIVPACSYEDKERPNCLTLQVSCKTNYICRSRLADFFTNCQPEPLSLSGCLKENYADCLLSYSGLIGTVMTPNYLRSPKISVSPFCDCSSSGNSKEECDRFTEFFTDNACLRNAIQAFGNGTD
chain 2: VKGQGRGCLLKEIHLNVTDLDLGYRTKEELIFRYCSGPCHDAETNYDKILNNLTHNKKLDKDTPSRTCCRPIAFDDDISFLDDSLEYHTLKKHSAKKCACV
Kd [5]: 0.09 µM | Kd [6]: 0.018 µM

B8: zGDNF^mat.WT-zGFR1α1a^D1−3_(E326A,E327A) complex (complex)
chain 1: MFIAAIYIILPLLDVLLSAEESYFSSSNRLDCVKANELCLKEPGCSSKYRTMRQCVAGRESNFSMATGMEAKDECRLVLDALKQSPLYNCRCKRGMKKEKNCLRIYWGIYQHLQGNDLLEDSPYEPVNSRLSDIFRLAPIYSGEPALAKENNCLNAAKACNLNDTCKKYRSAYISPCTSRVSTAEVCNKRKCHKALRQFFDKVPPKHSYGMLYCSCPLGDQSACSERRRQTIVPACSYEDKERPNCLTLQVSCKTNYICRSRLADFFTNCQPEPLSLSGCLKENYADCLLSYSGLIGTVMTPNYLRSPKISVSPFCDCSSSGNSKAACDRFTEFFTDNACLRNAIQAFGNGTD
chain 2: VKGQGRGCLLKEIHLNVTDLDLGYRTKEELIFRYCSGPCHDAETNYDKILNNLTHNKKLDKDTPSRTCCRPIAFDDDISFLDDSLEYHTLKKHSAKKCACV
Kd [5]: 0.17 µM
